For 3 molecules, Kd results are on record in paper PMC2881539 (Analytical biochemistry, 2010).

What all share (test): ELISA
Background: ELISA stands for enzyme-linked immunosorbent assay.

Assay [1] concerns the target Fzd5 CRD (UniProt Q13467). To be noted: cited from earlier work.
In assay [2] the target is T1, purified hSFRP4 (R & D Systems) (human, UniProt Q6FHJ7 19-346).
T1 sequence (looked up): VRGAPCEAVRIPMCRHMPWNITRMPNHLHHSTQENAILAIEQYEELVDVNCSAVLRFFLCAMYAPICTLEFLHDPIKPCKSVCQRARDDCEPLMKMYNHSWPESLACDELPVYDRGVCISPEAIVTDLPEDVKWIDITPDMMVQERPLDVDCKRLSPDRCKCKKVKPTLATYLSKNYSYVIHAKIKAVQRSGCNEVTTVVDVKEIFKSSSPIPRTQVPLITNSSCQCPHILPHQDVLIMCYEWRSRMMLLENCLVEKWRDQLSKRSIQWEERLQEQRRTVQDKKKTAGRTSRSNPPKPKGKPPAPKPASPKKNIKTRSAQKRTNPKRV

Assay [3] addresses mWnt3a-V5/6xHis (mouse, UniProt P27467 19-352).

mWnt3a-V5/6xHis, sequence (P27467 19-352): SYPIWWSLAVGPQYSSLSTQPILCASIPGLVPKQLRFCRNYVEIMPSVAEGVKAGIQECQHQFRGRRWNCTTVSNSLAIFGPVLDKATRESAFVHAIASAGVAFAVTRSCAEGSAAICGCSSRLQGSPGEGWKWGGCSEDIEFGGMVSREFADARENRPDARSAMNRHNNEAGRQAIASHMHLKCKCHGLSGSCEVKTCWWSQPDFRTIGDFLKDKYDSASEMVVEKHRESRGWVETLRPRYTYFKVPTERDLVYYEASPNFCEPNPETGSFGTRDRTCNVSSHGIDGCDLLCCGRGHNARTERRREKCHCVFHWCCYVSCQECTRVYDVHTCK

Wnt7a (from UniProt O00755): in assay [1], the Kd was 75.4 nM.

B1: rWnt7a V5/6xHis (ligand, UniProt O00755 32-349, looked up)
chain: LGASIICNKIPGLAPRQRAICQSRPDAIIVIGEGSQMGLDECQFQFRNGRWNCSALGERTVFGKELKVGSREAAFTYAIIAAGVAHAITAACTQGNLSDCGCDKEKQGQYHRDEGWKWGGCSADIRYGIGFAKVFVDAREIKQNARTLMNLHNNEAGRKILEENMKLECKCHGVSGSCTTKTCWTTLPQFRELGYVLKDKYNEAVHVEPVRASRNKRPTFLKIKKPLSYRKPMDTDLVYIEKSPNYCEEDPVTGSVGTQGRACNKTAPQASGCDLMCCGRGYNTHQYARVWQCNCKFHWCCYVKCNTCSERTEMYTCK
Consider B1, for which the Kd in assay [2] is 86.5 nM.

B2: hFzd5CRD-Fc IgG (Fc fusion, human, UniProt Q13467 27-150, looked up)
chain: ASKAPVCQEITVPMCRGIGYNLTHMPNQFNHDTQDEAGLEVHQFWPLVEIQCSPDLRFFLCSMYTPICLPDYHKPLPPCRSVCERAKAGCSPLMRQYGFAWPERMSCDRLPVLGRDAEVLCMDY
For B2, binding in assay [3] was characterised by a dissociation constant (Kd) of 83.7 nM.

The term Kd denotes the equilibrium constant for the complex coming apart.
